Results: the supplement of paper PMC9170038

Tested on: MS2 coat protein
Test: apparent KD of MS2 coat protein; designed switch direction (-1 OFF switch, 1 ON switch): -1; higher = weaker reporter binding
Summary of the method: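 For each design, the apparent KD is the median over clusters of curves fitted to normalised cluster fluorescence. Clusters held RNA switches with common flanks, transcribed on Illumina chips by stalled E. coli RNA polymerase. These were titrated with SNAP-549-labelled MS2 coat protein, doubling from 0.7 or 1.5 nM to 3 µM, without input, with 200 uM small-molecule ligand, or with an oligonucleotide input.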

[1] = input ligand: microRNA oligo, concentration not stated
[2] = Eterna round: R95, input ligand: FMN 200 uM
[3] = Eterna round: R95, input ligand: microRNA oligo, concentration not stated
[4] = Eterna round: R95, input ligand: none

Sequence | apparent KD of MS2 coat protein (input ligand: FMN 200 uM) | apparent KD of MS2 coat protein [1] | apparent KD of MS2 coat protein (input ligand: none) | apparent KD of MS2 coat protein [2] | apparent KD of MS2 coat protein [3] | apparent KD of MS2 coat protein [4]
AAGAGGAAUAUAGGAUAUGAGGCUGAGACGGCGUCAGAAGGGUAUCCAGAGUUACAUGAGGAUCACCCAUGUGGUGAUUUCUAA [Exclusion NG 1 V2 1] (Eterna round: R96, puzzle: Exclusion NG 1) | 9.2 nM | 5.74 nM | 81.2 nM |  |  | 
AAGAGGCGGACAGGAUAUGGGAAAUUGUAAAGACCAGAAGGGUCGGCGAAAAUACAUGAGGAUCACCCAUGUGACUCAUGACCA [AK ExNG1-7.1] (Eterna round: R96, puzzle: Exclusion NG 1) | 913 nM | 311 nM | 290 nM |  |  | 
AAGAUGAGACAGGAUAUCCACAAAAUCUUGUCAGGAGAAGGGUCUACAUGAGGAUCACCCAUGUGAUUCUUGAA [Inriinvele] (puzzle: Exclusion 6) |  |  |  | 19.1 nM | 14.6 nM | 18.1 nM
AAGAUGUCAGGAUAUUAGUAGUAAAUGAAUAAAAUUAUUACUGAGAAGGGACAUGAGGAUCACCCAUGUGCCUU [Mat - Exclusion 4 - Eli Mod - D10] (Eterna round: R97, puzzle: Exclusion 4) | 17.5 nM |  | 16.6 nM |  |  | 
AAGAUUCUCAUGAGCUGGAACAUGAGGAUCACCCAUGUGUGUUGCUUUUUGCUCAAGGAAUCCAUUUCGAUCUUAUA [Eternabot (L1) Solution 43] (Eterna round: R97, puzzle: Sensor, turn-off variant 1) | 62.9 nM |  | 71.8 nM |  |  | 
AAGCAUUGCCAAAGGUAGUGCUUAACAUGAGGAUCACCCAUGUAGGAUAUGGUAGGCAAAGCUUACCAGAAGGACAUGAUAAUU [Mat - Exclusion NG 3 - Mod of JL - D14] (Eterna round: R96, puzzle: Exclusion NG 3) | 430 nM | 61.5 nM | 70.8 nM |  |  | 
AAGCCUCAGGUUAGGAUAUACGCCUGGCCGAAGGAGUAGAAGGGACAUGAGGAUCACCCAUGUGGGUUCAAAAG [Atanvege] (puzzle: Brourd's mod of Exclusion 4) |  |  |  | 52.5 nM | 43 nM | 44.9 nM
AAGCGGUGAGGAUAUACAUGAGGAUCACCCAUGUGUAUGCAGAGGGCGCGGUGUUGGUGUAGAAGGCACUGGGA [EX3 B.10] (Eterna round: R97, puzzle: Exclusion 3) | 23 nM |  | 19.4 nM |  |  | 
AAGGAUAGAGGAUAUACAUAGAUACAGAUUCAUGUGGUCCUACAUGAGGAUCACCCAUGUAGAAGGCUAUCCUA [Fiskers Ex 2 - 14] (puzzle: Exclusion 2) |  |  |  |  | 169 nM | 
AAGGCGCGCGUAGGAUAUCACCGCAAAAGUCGAUGAGAAGGGCGAGUGCAUGGUGUCCUAACUUGAGGAUCACCCAAGUAAAGA [Mutated MS2 EX1.22] (Eterna round: R96, puzzle: Exclusion NG 1) | 67.9 nM | 41.5 nM | 56.5 nM |  |  | 
AAGGGUACUUUCAGAACGACAUGAGGAUCACCCAUGUAGACUGAGGAUAUCUACUACUAAGGACGGGAGAAGGCAGUGUAAUGU [Ex NG3 #73] (Eterna round: R96, puzzle: Exclusion NG 3) | 13.8 nM | 10 nM | 15.2 nM |  |  | 
AAGGGUACUUUCAGAACGACAUGAGGAUCACCCAUGUAGACUGAGGAUAUCUACUUCUAAGGACGGGAGAAGGCAGUGUAAUGU [Ex NG3 #72] (Eterna round: R96, puzzle: Exclusion NG 3) | 11.4 nM | 10.7 nM | 13.5 nM |  |  | 
AAGGGUACUUUCGGAACGACAUGAGGAUCACCCAUGUAGACUGAGGAUAUCUGCUACUAAGGACGGGAGAAGGCAGUGUAAUGU [Ex NG3 #75] (Eterna round: R96, puzzle: Exclusion NG 3) | 18.5 nM | 12.8 nM | 18.7 nM |  |  | 
AAGUAACAUGAGGAUCACCCAUGUUAGGAUAUCUCGGCCGCGGCAUCGCCGCGAAACCAGAGAAGGAGCGGGUG [Erargeisar] (Eterna round: R97, puzzle: Exclusion 1) | 206 nM |  | 160 nM |  |  | 
AAGUACCGUCACGAUAGUGAUGGUACAACAAGUAUGUGAACAUGAGGAUCACCCAUGUCCUCUUUUGCUCGUCUUAU [Sensor 3 - 89] (puzzle: Sensor v3, turn-off variant 2) |  |  |  | 313 nM | 22.3 nM | 309 nM
AAGUAGUGUGUGAGGAUAUUGGUGGAAUGACACAUUAAGAAGGCACAUGAGGAUCACCCAUGUGGGUUGACACG [Brourd's EX4 #20] (Eterna round: R97, puzzle: Brourd's mod of Exclusion 4) | 282 nM |  | 47 nM |  |  | 
AAGUAUAGAGGAUAUAGUGAGUACUACAUGAGGAUCACCCAUGUUCUUCAAAGCGUAUUUCUAGAAGGCUGUUAAA [EX-5 Malc#18] (puzzle: Exclusion 5) |  |  |  | 123 nM | 48.7 nM | 53.1 nM
AAGUCAACAUGAGGAUCACCCAUGUCCAAGUUGAUGUCCUGUGAGGAUAUGUGUAAACGGCCGGCACAGAAGGCACAAGACGCG [Eternabot solution 5] (Eterna round: R96, puzzle: Exclusion NG 3) | 32.3 nM | 30.4 nM | 34.5 nM |  |  | 
AAGUCAGCAGGAUAUGCGAUGUUGGGCUAGGUAGCGUGACCACAUGAGGAUCACCCAUGUAGAAGGGCUGGCUA [EX2 Malc#36] (Eterna round: R96, puzzle: Exclusion 2) | 45.6 nM | 21.9 nM | 29.7 nM |  |  | 
AAGUCGAGCGUGAGGAUAUCGUCCGAACGACCGAACGAGAAGGCACAUGAGGAUCACCCAUGUGAUUCAGCUCA [Brourd's EX4 #48] (Eterna round: R97, puzzle: Brourd's mod of Exclusion 4) | 16.8 nM |  | 14.2 nM |  |  | 
AAGUGGAAAACACAAUUGUACAUGAGGAUCACCCAUGUAUGUACGAAAUAUAGACAAGCUGUAUGCUCGACAACACA [Sensor v2 M17] (Eterna round: R96, puzzle: Sensor v2, turn-off variant) | 36.3 nM | 18.3 nM | 37 nM |  |  | 
AAGUGUGCCUAGGAUAUGUUCGGCCAAGGUCAUACAGAAGGAGGCACAUGAGGAUCACCCAUGUAGUGUCCUAC [Soququis] (puzzle: Exclusion 6) |  |  |  |  | 59.6 nM | 
AAUAAAAGCGAGGAUAUCGUAUCGGAAACGAUACGAGAAGGCGUAACAUGAGGAUCACCCAUGUGUCCUCAAUA [Mat - Exclusion 6 - Eli Mod - D8] (Eterna round: R97, puzzle: Exclusion 6) | 1260 nM |  | 130 nM |  |  | 
AAUAACAAGCCGAUCCUCCACAUGAGGAUCACCCAUGUGUUCGUCUUGUAAAGUACUAUCACGAAAGUGAUAGUACA (Eterna round: R97, puzzle: Sensor, turn-off variant 1) | 23 nM |  | 30.5 nM |  |  | 
AAUAACAAGCCGAUCCUUUACAUGAGGAUCACCCAUGUGCUCGUCUUGUAAAGUACUAUCACGAAAGUGAUAGUACA (Eterna round: R97, puzzle: Sensor, turn-off variant 1) | 28 nM |  | 27 nM |  |  | 
